Assay results taken from US20200270365A1 (JIANGSU HENGRUI MEDICINE, published 2020).
Changes are numbered by the printed parent chain.

B1: h011-3133 (antibody, V domains shown)
VH: QVQLVQSGAEVKKPGASVKVSCKASGYTFTGYEIHWVRQAPGQGLEWMGYINPSATYTKFNQKFKDRVTMTRDTSISTAYMELSRLRSDDTAVYYCARERIYSNYWFFDVWGQGTTVTVSS
VL: DIVMTQSPSSLSASVGDRVTITCKASQNVYTAVAWYQQKPGKSPKLLIYSASNRYTGVPSRFSGSGSGTDFTLTISSLQPEDFATYFCQQYSSYPYTFGGGTKVEIK
B2: h011-3147 (antibody, V domains shown)
VH: B1 VH with E33T, Y50E, N52I, A55S
VL: B1 VL
B3: h011-3193 (antibody, V domains shown)
VH: B1 VH with E33T, A55S
VL: B1 VL with A34D
B4: h011-3181 (antibody, V domains shown)
VH: B1 VH with E33T, A55S
VL: B1 VL with Y91L, Y96D
B5: h011-3192 (antibody, V domains shown)
VH: B1 VH with E33T, A55S
VL: B1 VL with A32E
B6: h011-3191 (antibody, V domains shown)
VH: B1 VH with E33T, N52V, A55S
VL: B1 VL
B7: h011-3190 (antibody, V domains shown)
VH: B1 VH with E33T, Y50E, A55S
VL: B1 VL
B8: h011-3195 (antibody, V domains shown)
VH: B1 VH with E33T, A55S, Y102F
VL: B1 VL
B9: h011-3187 (antibody, V domains shown)
VH: B1 VH with E33T, A55S
VL: B1 VL with Y91L, Y94S, Y96E
B10: h011-3194 (antibody, V domains shown)
VH: B1 VH with E33T, A55S
VL: B1 VL with Y91L
B11: h011-3174 (antibody, V domains shown)
VH: B1 VH with E33T, A55S, Y102F
VL: B1 VL with S50Q

Columns and labels:
[1] = molecular target: T1, PCSK9 protein inserted with biotin receiving peptide BP15 and His-tag: PCSK9-BP15-His6 (human, UniProt Q8NBP7 153-692; A8T644 31-152, biotin on the BP15 biotin receiving peptide (labeled during the expression)); assay: competition ELISA, LDLR-FC coated, biotin PCSK9 + antibody
T1 construct: also called WT PCSK9; PCSK9 WT
Procedure: The blocking ability of PCSK9 antibodies according to the present invention for the binding of LDLR-FC (produced in-house, with sequence of SEQ ID NO: 8) and PCSK9 (SEQ ID NO: 5) was tested by measuring the amount of PCSK9 binding to LDLR in the presence of the antibodies.
(§1) LDLR-FC was diluted to 5 μg/ml with phosphate buffer and was added into the 96-well ELISA plate, kept at 4° C. overnight. The plate was washed and then blocked with Tris buffer (including 0.9 mM CaCl₂, 0.05% Tween 20 and 5% skim milk) at 37° C. for 2 hours. Then the plate was washed and 100 μl/well of mixture of biotin-labeled PCSK9 (diluted to 2 μg/ml with Tris buffer containing 0.9 mM CaCl₂, 0.05% Tween 20 and 1% skim milk) and antibody samples (diluted with Tris buffer containing 0.9 mM CaCl₂, 0.05% Tween 20 and 1% skim milk) was added and incubated at 37° C. for 1 hour. Then the plate was washed again and horseradish peroxidase-streptavidin (sigma, CAT #S2438) was added and incubated at 37° C. for 1 hour. Then the plate was washed and tetramethyl brenzidine solution was added for development. Finally, the stop buffer was added and OD450 value was measured on the Microplate reader, then IC50 value was calculated.

[2] = molecular target: T2, PCSK9 D374Y mutant protein inserted with biotin receiving peptide BP15 and His-tag: PCSK9-D374Y-BP15-His6 (human, UniProt Q8NBP7 153-692; A8T644 31-152, biotin on the BP15 biotin receiving peptide); assay: ELISA, biotin PCSK9-Y on streptavidin plate
T2 construct: also called PCSK9-Y; mutant PCSK9
Procedure: The binding ability of anti-PCSK9 antibodies of the present invention to PCSK9-Y protein (mutant PCSK9, SEQ ID NO: 6) was detected by measuring the amounts of antibodies binding to PCSK9-Y immobilized on the ELISA plate.
Streptavidin (sigma, CAT #S4762) was diluted to 2 μg/ml with PBS and was added into a 96-well ELISA plate, at 4° C. for overnight. The plate was washed and then was blocked with Tris buffer (including 0.9 mM CaCl₂, 0.05% Tween 20 and 5% skim milk) at 37° C. for 2 hours. The plate was washed and 100 μl/well of biotin-labeled PCSK9-Y (produced in-house, diluted with Tris buffer containing 0.9 mM CaCl₂, 0.05% Tween 20 and 1% skim milk) was added and incubated at 37° C. for 1 hour. After the wash step, various concentrations of diluted PCSK9 antibody samples were added to the plate and incubated at 37° C. for 1 hour. […] Then the plate was washed and tetramethyl brenzidine solution was added for development. Finally, the stop buffer was added and the OD450 value was measured on the Microplate reader, and then EC50 was calculated.

[3] = molecular target: T2, PCSK9 D374Y mutant protein inserted …; assay: competition ELISA, LDLR-FC coated, biotin PCSK9-Y + antibody
Procedure: The blocking ability of PCSK9 antibodies according to the present invention for the binding of LDLR-FC and PCSK9-Y (mutant PCSK9, SEQ ID NO: 6) was tested by measuring the amount of PCSK9-Y binding to LDLR in the presence of the antibodies.
as §1, with “LDLR-FC (produced in-house, with sequence of SEQ ID NO: 8)” for “LDLR-FC”, “to 2” for “to 5”, “plate,” for “plate, kept”, “biotin-labeled mutant” for “biotin-labeled”, “to 1” for “to 2”

[4] = molecular target: T1, PCSK9 protein inserted with biotin …; assay: ELISA, biotin PCSK9 on streptavidin plate
Procedure: The binding ability of anti-PCSK9 antibodies of the present invention to PCSK9 protein (WT PCSK9, SEQ ID NO: 5) was detected by measuring the amounts of antibodies binding to PCSK9 immobilized on the ELISA plate.
Streptavidin (sigma, CAT #S4762) was diluted to 2 μg/ml with PBS and was added into a 96-well ELISA plate, at 4° C. for overnight. The plate was washed and then was blocked with Tris buffer (including 0.9 mM CaCl₂, 0.05% Tween 20 and 5% skim milk) at 37° C. for 2 hours. Then the plate was washed again and 100 μl/well of biotin-labeled PCSK9 (produced in-house, diluted with Tris buffer containing 0.9 mM CaCl₂, 0.05% Tween 20 and 1% skim milk) was added and incubated at 37° C. for 1 hour. After the wash step various concentrations of diluted PCSK9 antibody samples was added to the plate and incubated at 37° C. for 1 hour. […] Then the plate was washed and tetramethyl brenzidine solution was added for development. Finally, the stop buffer was added and the OD450 value was measured on the Microplate reader, and then EC50 was calculated.

Row | Binder | IC50 [1] | EC50 [2] | IC50 [3] | EC50 [4]
1 | B1 | 0.495 µg/mL | 0.00492 µg/mL | 0.175 µg/mL | 0.00435 µg/mL
2 | B2 | 0.567 µg/mL | 0.00668 µg/mL | 0.173 µg/mL | 0.00483 µg/mL
3 | B3 | 0.621 µg/mL | 0.0221 µg/mL | 0.871 µg/mL | 0.0047 µg/mL
4 | B4 | 0.857 µg/mL | 0.00678 µg/mL | 0.233 µg/mL | 0.00221 µg/mL
5 | B5 | 0.698 µg/mL | 0.127 µg/mL | 2.36 µg/mL | 0.00664 µg/mL
6 | B6 | 0.74 µg/mL | 0.0066 µg/mL | 0.226 µg/mL | 0.00631 µg/mL
7 | B7 | 0.837 µg/mL | 0.00478 µg/mL | 0.222 µg/mL | 0.005 µg/mL
8 | B8 | 2.25 µg/mL | 0.0218 µg/mL | 0.689 µg/mL | 0.00679 µg/mL
9 | B9 | 0.666 µg/mL | 0.00704 µg/mL | 0.156 µg/mL | 0.0045 µg/mL
10 | B10 | 0.628 µg/mL | 0.0169 µg/mL | 0.579 µg/mL | 0.00469 µg/mL
11 | B11 | 1.67 µg/mL | 0.0112 µg/mL | 0.23 µg/mL | 0.00529 µg/mL
